Laboratory results taken from paper PMC9464592 (Nature, 2022).
Positions count from the first letter of the chain named. Names may count otherwise. Blank lines part the entries; values can stand above or below the binder they belong to.

Experiments:
tag-free WDR59 [1] = molecular target: T1, tag-free WDR59 (human, UniProt Q6PJI9 1-974); experiment: SEC
T1 sequence: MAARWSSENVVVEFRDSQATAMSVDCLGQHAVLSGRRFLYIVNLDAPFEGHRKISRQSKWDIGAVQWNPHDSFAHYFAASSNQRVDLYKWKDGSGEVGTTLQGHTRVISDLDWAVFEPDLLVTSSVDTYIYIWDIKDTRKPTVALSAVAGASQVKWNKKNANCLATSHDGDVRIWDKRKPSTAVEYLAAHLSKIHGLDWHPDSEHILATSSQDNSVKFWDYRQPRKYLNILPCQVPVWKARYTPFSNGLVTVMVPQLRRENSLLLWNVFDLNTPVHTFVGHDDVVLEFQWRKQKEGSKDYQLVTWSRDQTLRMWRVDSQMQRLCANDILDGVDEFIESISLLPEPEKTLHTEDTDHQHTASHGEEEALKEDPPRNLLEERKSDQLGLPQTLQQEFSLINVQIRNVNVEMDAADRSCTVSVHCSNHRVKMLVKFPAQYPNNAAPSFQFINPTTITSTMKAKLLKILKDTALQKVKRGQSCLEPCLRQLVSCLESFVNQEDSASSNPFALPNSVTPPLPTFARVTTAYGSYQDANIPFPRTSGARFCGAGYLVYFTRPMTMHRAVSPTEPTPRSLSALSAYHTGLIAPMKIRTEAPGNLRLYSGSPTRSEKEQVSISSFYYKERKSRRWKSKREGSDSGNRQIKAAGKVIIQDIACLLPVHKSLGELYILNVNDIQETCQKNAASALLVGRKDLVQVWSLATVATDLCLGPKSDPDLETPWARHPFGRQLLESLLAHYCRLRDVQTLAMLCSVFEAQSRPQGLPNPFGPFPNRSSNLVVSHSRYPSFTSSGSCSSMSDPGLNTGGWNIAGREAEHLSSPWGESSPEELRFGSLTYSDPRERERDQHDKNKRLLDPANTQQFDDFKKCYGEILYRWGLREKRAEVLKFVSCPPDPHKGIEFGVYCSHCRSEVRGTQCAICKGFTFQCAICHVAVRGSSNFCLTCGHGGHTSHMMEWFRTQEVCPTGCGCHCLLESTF

tag-free WDR59 [2] = molecular target: T1, tag-free WDR59; experiment: cryo-EM structure

binding result (tag-free WDR59 [1]): binds
B1: MIOS A560E (natural protein, human)
chain: MSGTKPDILWAPHHVDRFVVCDSELSLYHVESTVNSELKAGSLRLSEDSAATLLSINSDTPYMKCVAWYLNYDPECLLAVGQANGRVVLTSLGQDHNSKFKDLIGKEFVPKHARQCNTLAWNPLDSNWLAAGLDKHRADFSVLIWDICSKYTPDIVPMEKVKLSAGETETTLLVTKPLYELGQNDACLSLCWLPRDQKLLLAGMHRNLAIFDLRNTSQKMFVNTKAVQGVTVDPYFHDRVASFYEGQVAIWDLRKFEKPVLTLTEQPKPLTKVAWCPTRTGLLATLTRDSNIIRLYDMQHTPTPIGDETEPTIIERSVQPCDNYIASFAWHPTSQNRMIVVTPNRTMSDFTVFERISLAWSPITSLMWACGRHLYECTEEENDNSLEKDIATKMRLRALSRYGLDTEQVWRNHILAGNEDPQLKSLWYTLHFMKQYTEDMDQKSPGNKGSLVYAGIKSIVKSSLGMVESSRHNWSGLDKQSDIQNLNEERILALQLCGWIKKGTDVDVGPFLNSLVQEGEWERAAAVALFNLDIRRAIQILNEGASSEKGDLNLNVVAMELSGYTDEKNSLWREMCSTLRLQLNNPYLCVMFAFLTSETGSYDGVLYENKVAVRDRVAFACKFLSDTQLNRYIEKLTNEMKEAGNLEGILLTGLTKDGVDLMESYVDRTGDVQTASYCMLQGSPLDVLKDERVQYWIENYRNLLDAWRFWHKRAEFDIHRSKLDPSSKPLAQVFVSCNFCGKSISYSCSAVPHQGRGFSQYGVSGSPTKSKVTSCPGCRKPLPRCALCLINMGTPVSSCPGGTKSDEKVDLSKDKKLAQFNNWFTWCHNCRHGGHAGHMLSWFRDHAECPVSACTCKCMQLDTTGNLVPAETVQP

binding result (tag-free WDR59 [2]): binds
B2: N-terminally Flag-tagged MIOS (natural protein, human)
chain: B1 chain with E560A

binding result (tag-free WDR59 [1]): binds
B3: WDR24 ∆CTD (domain or fragment, human, UniProt Q96S15 1-700, looked up)
chain: MEKMSRVTTALGGSVLTGRTMHCHLDAPANAISVCRDAAQVVVAGRSIFKIYAIEEEQFVEKLNLRVGRKPSLNLSCADVVWHQMDENLLATAATNGVVVTWNLGRPSRNKQDQLFTEHKRTVNKVCFHPTEAHVLLSGSQDGFMKCFDLRRKDSVSTFSGQSESVRDVQFSIRDYFTFASTFENGNVQLWDIRRPDRCERMFTAHNGPVFCCDWHPEDRGWLATGGRDKMVKVWDMTTHRAKEMHCVQTIASVARVKWRPECRHHLATCSMMVDHNIYVWDVRRPFVPAAMFEEHRDVTTGIAWRHPHDPSFLLSGSKDSSLCQHLFRDASQPVERANPEGLCYGLFGDLAFAAKESLVAAESGRKPYTGDRRHPIFFKRKLDPAEPFAGLASSALSVFETEPGGGGMRWFVDTAERYALAGRPLAELCDHNAKVARELGRNQVAQTWTMLRIIYCSPGLVPTANLNHSVGKGGSCGLPLMNSFNLKDMAPGLGSETRLDRSKGDARSDTVLLDSSATLITNEDNEETEGSDVPADYLLGDVEGEEDELYLLDPEHAHPEDPECVLPQEAFPLRHEIVDTPPGPEHLQDKADSPHVSGSEADVASLAPVDSSFSLLSVSHALYDSRLPPDFFGVLVRDMLHFYAEQGDVQMAVSVLIVLGERVRKDIDEQTQEHWYTSYIDLLQRFRLWNVSNEVVKLS
